Test results taken from patent publication US20100119506A1, “Effectors of PAR-2 Activation and Their Use in the Modulation of Inflammation” (BOEHRINGER INGELHEIM INTERNATIONAL GMBH, priority 2008, published 2010).
Substitutions are numbered along the chain they refer to.

Tests used:
[1] = molecular target: PAR-2 peptide (Homo sapiens, UniProt P55085); test: ELISA binding to PAR-2 peptide; conditions: peptide coupled to Transferrin
Protocol: (§1) The molecular selectivity of antibodies for PAR-2 versus PAR-1 and PAR-4 was assessed using peptides derived from the N-terminal regions of all three PARs: […]

[2] = molecular target: T1, PAR-1 peptide (Homo sapiens, UniProt P25116); test: ELISA binding to PAR-1 peptide
T1 sequence (P25116 38-66 limits assumed): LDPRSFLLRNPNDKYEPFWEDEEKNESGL
Protocol: as §1

[3] = molecular target: T2, PAR-4 peptide (Homo sapiens, UniProt Q96RI0, C54S); test: ELISA binding to PAR-4 peptide
T2 sequence (Q96RI0 44-71 C54S): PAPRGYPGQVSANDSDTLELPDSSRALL
Protocol: as §1

[4] = molecular target: T3, PAR-2 (Homo sapiens, UniProt P55085); test: Binding to PAR-2 transfected HEK293 cells; assay type: cell-based; set-up: expressed in transfected cells; host or cells: HEK293; conditions: for Ratio of EC50 Fab EC50 IgG: HEK-PAR-2 binding; for EC50: Fab, read-out: Binding of Fab to HEK-PAR-2 (#3) (3RBO64) EC50
T3 sequence (P55085 26-397): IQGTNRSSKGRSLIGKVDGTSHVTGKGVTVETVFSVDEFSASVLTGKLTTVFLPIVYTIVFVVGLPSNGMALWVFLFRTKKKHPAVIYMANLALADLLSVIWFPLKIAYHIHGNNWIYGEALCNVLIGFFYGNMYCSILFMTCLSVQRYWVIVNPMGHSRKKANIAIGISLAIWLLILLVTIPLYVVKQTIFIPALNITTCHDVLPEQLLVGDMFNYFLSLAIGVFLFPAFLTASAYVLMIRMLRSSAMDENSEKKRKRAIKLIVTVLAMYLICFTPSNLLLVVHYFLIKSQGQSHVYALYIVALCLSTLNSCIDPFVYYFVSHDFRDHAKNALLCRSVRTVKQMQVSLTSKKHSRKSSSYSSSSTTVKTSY
From the text: These Fabs were then converted to the IgG4_Pro (“IgG4p”) format. The IgG4_Pro antibodies consist of the variable VH and VL regions derived from corresponding Fabs fused to the constant regions of human IgG4 including a Ser241Pro mutation in the hinge region of the H-chain. The proline substitution in the hinge region is known to prevent the formation of half-molecules in natural human IgG4 molecules (Angal et al. (1993) Molec. Immunol. 30:105-108).

[5] = molecular target: T4, mouse PAR-2 (Mus musculus, UniProt P55086); test: FLIPR trypsin-induced calcium release in mouse LLC cells; assay type: cell-based
T4 construct: endogenous in cells; host or cells: LLC (mouse Lewis lung carcinoma)
T4 sequence (P55086 26-399): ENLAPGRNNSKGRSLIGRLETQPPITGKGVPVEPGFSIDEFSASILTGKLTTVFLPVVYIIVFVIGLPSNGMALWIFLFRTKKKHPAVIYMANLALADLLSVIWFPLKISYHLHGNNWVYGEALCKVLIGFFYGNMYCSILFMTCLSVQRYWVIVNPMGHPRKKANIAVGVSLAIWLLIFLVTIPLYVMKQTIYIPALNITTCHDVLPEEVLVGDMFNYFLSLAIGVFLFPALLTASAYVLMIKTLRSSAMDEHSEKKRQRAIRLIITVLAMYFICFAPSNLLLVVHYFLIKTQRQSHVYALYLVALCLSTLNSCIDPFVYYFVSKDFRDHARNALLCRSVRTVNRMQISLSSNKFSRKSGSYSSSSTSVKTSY
Protocol: To further assess functional cross-reactivity with mouse PAR-2, the antibodies were tested in FLIPR assays with the mouse Lewis lung carcinoma (LLC) cell line.

[6] = molecular target: T3, PAR-2; test: Trypsin induced calcium response (FLIPR) in A549 cells; assay type: cell-based; set-up: expressing endogenous PAR-2; endogenous in cells; host or cells: A549; conditions: for inhibition of trypsin mediated calcium response/release in A549 (in words): full antibodies
Protocol: Using A549 cells, PAR-2 activation was measured by detecting the calcium response following trypsin stimulation. Fabs were tested in this assay for their ability to inhibit this response. […] Antibody concentrations are expressed as μg/ml (FIG. 6).
(§2) Thrombin activates PAR-1, whereas PAR-2 is activated by trypsin in A549 cells.

[7] = molecular target: T5, PAR-1 (Homo sapiens, UniProt P25116); test: Thrombin-induced calcium response (FLIPR) in A549 cells; assay type: cell-based; conditions: antibody concentrations up to 300 nM
T5 construct: endogenous in cells; host or cells: A549
T5 sequence (P25116 22-425): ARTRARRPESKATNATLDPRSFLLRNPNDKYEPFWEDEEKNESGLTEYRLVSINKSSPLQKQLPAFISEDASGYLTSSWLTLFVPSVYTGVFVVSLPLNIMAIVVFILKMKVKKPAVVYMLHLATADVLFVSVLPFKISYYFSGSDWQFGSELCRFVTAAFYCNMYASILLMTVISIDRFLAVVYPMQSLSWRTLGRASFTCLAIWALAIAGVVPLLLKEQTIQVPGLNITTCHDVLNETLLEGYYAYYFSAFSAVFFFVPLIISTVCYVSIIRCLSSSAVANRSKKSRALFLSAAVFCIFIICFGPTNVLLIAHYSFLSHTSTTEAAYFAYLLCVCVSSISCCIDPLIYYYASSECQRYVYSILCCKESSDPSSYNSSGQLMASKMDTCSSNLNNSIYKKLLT
From the text: as §2

B1: Ab4999: affinity matured from Ab3777, L-CDR3 optimized; light chain SEQ ID NO:27, heavy chain SEQ ID NO:7 (antibody, V domains shown)
VH: QVQLVESGGGLVQPGGSLRLSCAASGFTFSSYAMNWVRQAPGKGLEWVSTISYSSSATSYADSVKGRFTISRDNSKNTLYLQMNSLRAEDTAVYYCARIQNDPMDVWGQGTLVTVSS
VL: DIELTQPPSVSVAPGQTARISCSGDNLGKKYVQWYQQKPGQAPVLVIYDDSNRPSGIPERFSGSNSGNTATLTISGTQAEDEADYYCQTWDYSSIRDETNVFGGGTKLTVLGQ
modifications: Antibody identified via phage display; Antibody modified via affinity maturation
binding to PAR-2 peptide (in words) [1]: specific binding
binding to PAR-1 peptide (in words) [2]: did not exhibit detectable binding
binding to PAR-4 peptide (in words) [3]: no binding
Ratio of EC50 Fab EC50 IgG [4]: 0.3

B2: Par-C: codon-optimized anti-PAR-2 antibody; Ab4999 light chain (SEQ ID NO:37), Ab5007 or Ab5151 heavy chain (SEQ ID NO:39) (antibody, V domains shown)
VH: B1 VH with Q3E, T50A, Y53F, S55G, S56H, A57L, S59G
VL: B1 VL
modifications: Optimized cDNA sequence of variable region of Ab5007 or Ab5151 heavy chain; Optimized cDNA sequence of variable region of Ab4999 light chain
inhibition of trypsin-induced calcium release in LLC cells (in words) [5]: efficient inhibition
IC50 ([5]; trypsin-induced, value (SD)): 0.7 nM
inhibition of trypsin mediated calcium response/release in A549 (in words) [6]: potent inhibition
IC50 ([6]; trypsin stimulated, value (SD)): 1 nM

B3: Ab4994: affinity matured from Ab3777, H-CDR2 optimized; heavy chain SEQ ID NO:21, light chain SEQ ID NO:6 (antibody, V domains shown)
VH: B1 VH with T50A, S55G, S56H, A57L, S59G
VL: DIELTQPPSVSVAPGQTARISCSGDNLGKKYVQWYQQKPGQAPVLVIYDDSNRPSGIPERFSGSNSGNTATLTISGTQAEDEADYYCSSWDVGSDGWVFGGGTKLTVLGQ
modifications: Antibody modified via affinity maturation; Antibody identified via phage display
EC50 [4]: 1.9 nM
Ratio of EC50 Fab EC50 IgG [4]: 4.8

B4: Ab4997: affinity matured from Ab3777, H-CDR2 optimized; heavy chain SEQ ID NO:23, light chain SEQ ID NO:6 (antibody, V domains shown)
VH: B1 VH with T50A, S54N, S55G, S56K, A57L, T58K, S59G
VL: B3 VL
modifications: Antibody modified via affinity maturation; Antibody identified via phage display
EC50 [4]: 3.03 nM
Ratio of EC50 Fab EC50 IgG [4]: 8.0

B5: Ab5003: affinity matured from Ab3777, H-CDR2 optimized; heavy chain SEQ ID NO:24, light chain SEQ ID NO:6 (antibody, V domains shown)
VH: B1 VH with T50A, S54K, S55G, S56H, A57L, S59G
VL: B3 VL
modifications: Antibody modified via affinity maturation; Antibody identified via phage display
EC50 [4]: 7.03 nM
Ratio of EC50 Fab EC50 IgG [4]: 15.3

B6: Ab5151: cross-cloned: light chain of Ab4999 combined with the heavy chain of Ab5007 (antibody, V domains shown)
VH: B1 VH with T50A, Y53F, S55G, S56H, A57L, S59G
VL: B1 VL
binding to PAR-2 peptide (in words) [1]: specific binding
binding to PAR-1 peptide (in words) [2]: did not exhibit detectable binding
binding to PAR-4 peptide (in words) [3]: no binding
inhibition of the thrombin induced calcium response (in words) [7]: no inhibition
inhibition of trypsin mediated calcium response/release in A549 (in words) [6]: significant inhibition

B7: Ab5007: affinity matured from Ab3777, H-CDR2 optimized; heavy chain SEQ ID NO:26, light chain SEQ ID NO:6 (antibody, V domains shown)
VH: B1 VH with T50A, Y53F, S55G, S56H, A57L, S59G
VL: B3 VL
modifications: Antibody modified via affinity maturation; Antibody identified via phage display
EC50 [4]: 9.66 nM
Ratio of EC50 Fab EC50 IgG [4]: 19.3
